Assay [1] concerns the target recombinant human TGF-β 1 protein (Cat: CA59, Novoprotein Scientific Inc.) (human) (UniProt P01137). Nature of the assay: BLI (Octet QKe), binder captured on AHC biosensor, 1:1 fit. Background: In BLI a coated tip is dipped into the sample, and binding shifts an interference pattern.
Assay [2] deals with T1, human TGF-β 2 (Cat: CJ79, Novoprotein Scientific Inc.) (human) (UniProt P61812).
T1 sequence (looked up): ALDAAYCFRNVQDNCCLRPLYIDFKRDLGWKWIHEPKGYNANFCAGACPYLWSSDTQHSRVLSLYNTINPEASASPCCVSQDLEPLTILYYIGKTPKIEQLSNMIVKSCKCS
Nature of the assay: ELISA, target coated at 1 µg/ml, HRP-anti-human Fc detection.

Assay [3] deals with T2, human TGF-β 3 (Cat: CJ44, Novoprotein Scientific Inc.) (human) (UniProt P10600).
T2 sequence (looked up): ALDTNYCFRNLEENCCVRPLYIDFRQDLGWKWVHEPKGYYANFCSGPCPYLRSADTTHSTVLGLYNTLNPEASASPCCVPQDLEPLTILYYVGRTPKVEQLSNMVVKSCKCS
The assay is described as above.

Assay [4] has as its target recombinant human TGF-β 1 protein (Cat: CA59, Novoprotein Scientific Inc.) (human) (UniProt P01137). The assay is described as above.
Assay [5] concerns the target T3, recombinant human PD-L1-his protein (Accession No.: NP_054862.1, 19 aa-238 aa) (human, UniProt Q9NZQ7 19-238).
T3 construct: range 19-238; also called recombinant human PD-L1 extracellular domain protein; not shown: his tag
Nature of the assay: BLI (Octet QKe), binder captured on AHC biosensor, analyte 60 nM, 1:1 fit. An excerpt:
Antibody affinity was detected by an assay including capturing antibody Fc fragment with anti-human IgG Fc capture (AHC) biosensors on Octet QKe system instrument from Fortebio. […] The binding time was 300 s and the dissociation time was 300 s.

One may read the Kd as a measure of binding affinity in units of concentration. One may read the EC50 as the concentration at which the effect is half-maximal.

Chain of recombinant human TGF-β 1 protein (Cat: CA59, Novoprotein Scientific Inc.) (human) (P01137 279-390 limits assumed): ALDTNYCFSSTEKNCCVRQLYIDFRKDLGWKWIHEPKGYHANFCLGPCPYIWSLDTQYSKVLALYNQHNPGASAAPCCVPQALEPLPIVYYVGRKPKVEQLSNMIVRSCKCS
T3 sequence (Q9NZQ7 19-238 limits assumed): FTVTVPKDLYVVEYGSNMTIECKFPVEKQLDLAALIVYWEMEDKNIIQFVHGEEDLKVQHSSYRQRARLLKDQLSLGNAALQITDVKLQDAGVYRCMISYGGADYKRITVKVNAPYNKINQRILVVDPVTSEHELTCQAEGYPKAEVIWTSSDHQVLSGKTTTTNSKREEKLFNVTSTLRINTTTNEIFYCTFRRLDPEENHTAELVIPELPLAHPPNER

As to “recombinant protein M7824 (anti-human PD-L1 antibody/TGF-β RII fusion protein control)”, the Kd in assay [1] amounted to 2.81 nM. Also, the results for the concentration giving a half-maximal response (EC50) in assay [2], in assay [3] and in assay [4] were 18.2 nM, 0.981 nM and 0.472 nM, respectively.

B1: PD-L1 antibody H182-MUT4 (antibody, human IgG1, kappa, V domains shown)
VH: EVQLVQSGAEVKKPGATVKISCKVSGFNIKDIYMHWVQQAPGKGLEWMGRIDPANANTKYDPKFQDRVTITADTSTNTAYMELSSLRSEDTAVYYCASGQLGPLGFDYWGQGTTVTVSS
VL: DIQMTQSPSSLSASVGDRVTITCRASQDISNYLNWYQQKPGKAPKLLLYYTSRLHSGVPSRFSGSGSGTDYTLTISSLQPEDFATYFCQQGAGRPYTFGGGTKVEIKR
notes: 25-30 for the anti-human PD-L1 antibody without naming H182-MUT4; also called MW22
For B1, the Kd in assay [5] was 0.433 nM.

Values taken from patent US20230365653A1 (MABWELL SHANGHAI BIOSCIENCE, published 2023).
